What was measured:
[1] = tested on: A. fumigatus AF293/FGSC1100 hyphae; assay: Whole cell binding ELISA, A. fumigatus hyphae; parameters: species or system Aspergillus fumigatus; conditions: starting concentration 100 μg/ml scAb
Experimental: C. albicans Utr2 shares certain degree of sequence similarity with S. cerevisiae Utr2, S. cerevisiae Crh1 and an Aspergillus fumigatus allergen Aspf9, with highly conserved putative glycosyl hydrolase domains (Alberti-Segui et al., 2004). The cross-reactivity of selected Utr2 scAbs to A. fumigatus was tested by performing a whole cell binding ELISA using C. albicans SC5314 and A. fumigatus AF293/FGSC1100 strains. To induce hyphal formation, wells of a MaxiSorp flat-bottom 96 well plate was coated with approximately 10^6 overnight grown cells diluted in DMEM or RPMI-1640 modified medium containing 10% heat-inactivated foetal calf serum (FCS) and incubated at 37° C. for 2-20 h. Cells were washed three times in PBS+0.05% Tween, blocked with 1.5% bovine serum albumin (BSA), and incubated at room temperature for 1 h. Cells were washed as before and a starting concentration of 100 μg/ml scAb in 1% blocking buffer was added in duplicate in doubling dilutions and incubated at room temperature for 1.5 h. After washing, cells were incubated with anti-human C kappa peroxidase antibody as described previously. Following incubation for 45 min at room temperature, wells were washed and stained with tetramethylbenzidine (TMB) and read at an absorbance of 450 nm in a VersaMax microplate reader (Molecular Devices, USA).

[2] = tested on: C. albicans WT and Utr2 overexpression strains; assay: Immunofluorescence staining of C. albicans using Utr2 scAbs; format: cell-based, Candida albicans; conditions: scAb 10 μg/ml (1D2 repeated at 50 μg/ml)
Experimental: Overnight grown C. albicans WT and Utr2 overexpression strains were diluted and left to adhere on a poly-L-lysine glass slide for 1 h. To induce hyphal growth the cells were grown in DMEM medium containing 10% heat-inactivated foetal calf serum (FCS) and incubated at 37° C. for 2 h. Cells were washed three times in Dulbecco's phosphate-buffered saline (DPBS) and fixed with 4% paraformaldehyde at room temperature for 15 minutes. After washing, cells were blocked with 1.5% BSA and incubated for 1 h. Cells were washed as before and stained with Utr2 scAbs at 10 μg/ml for 1 h at room temperature. After washing, cells were stained with FITC-labelled anti-human kappa light chain antibody (1 μg/ml) and incubated at room temperature for 1 h. Cells were washed again and stained with 25 μg/ml of Calcofluor white (CFW) to illuminate chitin-containing structures. Mounting medium was added with a coverslip before images were taken using an UltraVIEW® Vox spinning disk confocal microscope (Perkin Elmer, Waltham, Mass, USA). Calcofluor white stain was viewed at lower brightness (×1) and FITC stain was viewed at higher brightness (×8). Calcofluor white stained the chitin rich cell wall as well as septa of both C. albicans strains.
The immunofluorescence staining was repeated for 1D2 scAb with higher concentration of scAb (50 μg/ml) and FITC-labelled anti-human kappa light chain antibody (5 μg/ml). […]

[3] = tested on: C. albicans WT strain SC5314; assay: Candida albicans growth inhibition assay; format: cell-based; conditions: OD 405 nm
Experimental: The antifungal activity of Utr2 scAbs was assessed by measuring the growth of fungal cells in microtitre plates. A growth assay was carried out with C. albicans WT strain SC5314 and using caspofungin as a positive control. A starting concentration of 100 μg/ml was prepared for the test scAbs (B5, C8, D3, 1H3, 1B1 and 1D2) and caspofungin and these were double diluted in a 96 well microtitre plate in designated wells. The wells were inoculated using 50 μl 2×10^6 cells/ml diluted in RPMI-1640 medium and incubated for 24 h and 48 h at 37° C. Cell growth was determined by measuring optical density at 405 nm in a spectrophotometer.

[4] = after 24 h, top concentration of 100 μg/ml

Row | Molecule | cross-reactivity to A. fumigatus hyphae [1] | immunofluorescence staining [2] | growth inhibition [3, 4] | growth inhibition ([3]; after 48 h incubation)
1 | 1B1: Utr2 antibody; SEQ ID NO: 10 (protein, 1B1 Amino Acid Sequence) scFv: QGQLVQSGGGVVQPGRSLRLSCAASGFTFSSYAMHWVRQAPGKGLEWVAVISYDGSNKYYADSVKGRFTISRDNSKNTLYLQMNSLRAEDTAVYYCARIAHPRTRGGKEVEYFQHWGQGTLVTVSSLEGGGGSGGGGSGGGASDIVMTQTPLSSPVTLGQPASISCRSSQSLVYSDGNTYLNWFQQRPGQSPRRLIYKVSNRDSGVPDRFSGSGSGTDFTLKISRVEAEDVGVYYCMQGTHWPPSFGQGTKLEIKR | cross-reactive | minimal staining |  | 
2 | 1C2: Utr2 antibody; SEQ ID NO: 14 (protein, 1C2 Amino Acid Sequence) scFv: QVQLVQSGAEVKKPGASVKVSCKASGYTFTSYAMHWVRQAPGQRLEWMGWINAGNGNTKYSQKFQGRVTITRDTSASTAYMELSSLRSEDTAVYYCARGGAAAGYYMDVWGKGTLVTVSSLEGGGGSGGGGSGGGASNFMLTQPHSVSESPGKTVTISCTRSSGSIASNYVQWYQQRPGSSPTTVIYDDNQRPSGVPDRFSASIDSSSNSASLTISGLKTEDEADYYCQSYDSSIVVFGGGTKLTVLG | cross-reactive |  |  | 
3 | 1D2: Utr2 antibody; SEQ ID NO: 24 (protein, 1D2 Amino Acid Sequence) scFv: QVQLVQSGAEVKKPGASVKVSCKASGYSFTNYDIYWVRQATGQGLEWVGFINPKTGKTGYAQKFQGRVTMSRDTSITTAYMELNSLTSEDTAVYYCASISGYWGQGTLVTVSSLEGGGGSGGGGSGGGASDIVMTQSPLSLPVTLGQPASISCRSSQSLVYSDGNTYLNWFQQRPGQSPRRLIYKVSNRDSGVPDRFSGSGSGTDFTLKISRVEAEDAGLYYCMQGSHWPPTFGQGTKVEIKR | cross-reactive | specifically stained the hyphal tips and bud surface |  | 
4 | C8: Utr2 antibody; SEQ ID NO: 18 (protein, C8 Amino Acid Sequence) scFv: EVQLVQSGAEVKKPGSSVKVSCKASGGTFSSYAISWVRQAPGQGLEWMGIINPSGGSTSYAQKFQGRVTMTRDTSTSTVYMELSSLRSEDTAVYYCARGTKGKDYYYMDVWGKGTLVTVSSLEGGGGSGGGGSGGGASDIQMTQSPSSLSASVGDRVTITCRASQSISTYLNWYQQKPGTAPNLLIYGASNLQSGVPSRFSGSGSGTDFTLTISSLQPEDFATYYCQQSYSTPLTFGGGTKVDIKR |  |  | 40% | No further reduction
5 | B5: Utr2 antibody; SEQ ID NO: 12 (protein, B5 Amino Acid Sequence) scFv: QVQLVESGGGVVQPGRSLRLSCAASGFTFSSYGMHWVRQAPGKGLEWVAVISYDGSNKYYADSVKGRFTISRDNSKNTLYLQMNSLKTEDTAQYYCVRVRRSGMARGLIDYWGQGTLVTVSSLEGGGGSGGGGSGGGASSYELTQDPAVSVALGQTVRITCQGDILRSYYASWYQQKPGQAPVLVIYGKNNRPSGIPDRFSGSSSGNTASLTITGAQAEDEADYYCNSRDSSGNHKVFGGGTKVTVLG |  |  | 40% | No further reduction
6 | D3: Utr2 antibody; SEQ ID NO: 26 (protein, D3 Amino Acid Sequence) scFv: QMQLVQSGAEVKKPGESLKISCKGSGYSFTSYWIGWVRQMPGKGLEWMGIIYPGDSDTRYSPSFQGQVTISADKSISTAYLQWSSLKASDTAMYYCARLKTGDQLPDIWGQGTMVTVSSLEGGGGSGGGGSGGGASDIVMTQTPLSLSVTPGQPASISCKSSQSLLHSDGKTYLYWYLQKPGQPPQLLIYEVSNRFSGVPDRFSGSGSGTDFTLKISRVEAEDVGVYYCMQTIQLPATFGGGTKLEIRR |  |  |  | approximately 40%
